According to paper PMC10614612, “Identification of a carbonic anhydrase–Rubisco complex within the alpha-carboxysome” (Proceedings of the National Academy of Sciences of the …, 2023):

Target: T1, biotinylated Rubisco (H. neapolitanus CbbL8S8) (H. neapolitanus, UniProt O85040 1-473; P45686 1-110, biotin (sites and subunit not stated))
T1 construct: Rubisco large subunit CbbL, H. neapolitanus, alpha-carboxysomal Form IA; Rubisco small subunit CbbS, H. neapolitanus; Held on streptavidin sensors; how it was biotinylated is in the SI Appendix methods; source: E. coli, coexpressed with GroEL/ES, purified (Strep-tag purification), biotinylated; copies: 8 + 8
Test: BLI; biotinylated Rubisco immobilised on streptavidin biosensors; 62.5–2.0 nM CsoSCA-MBP as prey; 25 mM Tris pH 7.5, 125 mM NaCl, 0.01% Triton X100; 1:1 binding model; triplicate
Details: both partners purified

B1: CsoSCA-MBP (enzyme, H. neapolitanus, UniProt O85042 1-514, looked up)
chain: MNTRNTRSKQRAPFGVSSSVKPRLDLIEQAPNPAYDRHPACITLPERTCRHPLTDLEANEQLGRCEDSVKNRFDRVIPFLQVVAGIPLGLDYVTRVQELAQSSLGHTLPEELLKDNWISGHNLKGIFGYATAKALTAATEQFSRKIMSEKDDSASAIGFFLDCGFHAVDISPCADGRLKGLLPYILRLPLTAFTYRKAYAGSMFDIEDDLAQWEKNELRRYREGVPNTADQPTRYLKIAVYHFSTSDPTHSGCAAHGSNDRAALEAALTQLMKFREAVENAHCCGASIDILLIGVDTDTDAIRVHIPDSKGFLNPYRYVDNTVTYAQTLHLAPDEARVIIHEAILNANRSDGWAKGNGVASEGMRRFIGQLLINNLSQIDYVVNRHGGRYPPNDIGHAERYISVGDGFDEVQIRNLAYYAHLDTVEENAIDVDVGIKIFTKLNLSRGLPIPIAIHYRYDPNVPGSRERTVVKARRIYNAIKERFSSLDEQNLLQFRLSVQAQDIGSPIEEVASA
notes: CsoSCA, beta-carbonic anhydrase of the alpha-carboxysome, H. neapolitanus; also called CsoSCA-MBP-his; C-terminal MBP tagged CsoSCA; source: E. coli, purified (His-tag purification, size exclusion chromatography); not shown: MBP, C-terminal, kept
A Kd of 1.2 ± 0.1 nM was found for B1 in this work.
